Measurements published in patent US20260217797A1 (Takeda / Millennium, published 2026).

What was measured:
SARS-CoV-2 RBD-mFc = SARS-CoV-2 RBD-mFc (SARS-CoV-2, UniProt P0DTC2 319-541); assay: Octet BLI, IgG, avid
[1] = target: SARS-CoV-2 Alpha (B.1.1.7) spike protein (on reporter virus particles) (SARS-CoV-2, UniProt P0DTC2 14-1273); assay: cell-based or functional assay
[2] = target: SARS-CoV-2 Beta (B.1.351) spike protein (on reporter virus particles) (SARS-CoV-2, UniProt P0DTC2 14-1273); assay: cell-based or functional assay
[3] = target: SARS-CoV-2 Omicron (B.1.529) spike protein (on reporter virus particles) (SARS-CoV-2, UniProt P0DTC2 14-1273); assay: cell-based or functional assay
[4] = target: SARS-CoV-2 B.1.1.7 N501Y (Alpha) RBD (SARS-CoV-2, UniProt P0DTC2 319-541); assay: Octet BLI single point, monovalent
[5] = target: SARS-CoV-2 B.1.351 (Beta) RBD (SARS-CoV-2, UniProt P0DTC2 319-541); assay: Octet BLI single point, monovalent
[6] = target: SARS-CoV-2 P.1 Spike (Gamma) (SARS-CoV-2, UniProt P0DTC2 16-1213); assay: Octet BLI single point, monovalent
[7] = target: SARS-CoV-2 B.1.617.2 (Delta) RBD (SARS-CoV-2, UniProt P0DTC2 319-541); assay: Octet BLI single point, monovalent
[8] = target: SARS-CoV-2 B.1.617.1 (Kappa) RBD (SARS-CoV-2, UniProt P0DTC2 319-541); assay: Octet BLI single point, monovalent
[9] = target: SARS-CoV-2 Epsilon (B.1.427/429) spike protein (on reporter virus particles) (SARS-CoV-2, UniProt P0DTC2 14-1273); assay: cell-based or functional assay
[10] = target: SARS-CoV-2 Gamma (P.1) spike protein (on reporter virus particles) (SARS-CoV-2, UniProt P0DTC2 14-1273); assay: cell-based or functional assay
[11] = target: SARS-CoV-2 L452R RBD (Epsilon) (SARS-CoV-2, UniProt P0DTC2 319-541); assay: Octet BLI single point, monovalent

Binder | Kd (SARS-CoV-2 RBD-mFc) [nM] | PsV neutralization IC50 [1] [µg/mL] | PsV neutralization IC90 [1] [µg/mL] | PsV neutralization IC50 [2] [µg/mL] | PsV neutralization IC90 [2] [µg/mL] | PsV IC50, Test 1 [3] [nM] | Kd [4] [nM] | Kd [5] [nM] | Kd [6] [nM] | Kd [7] [nM] | Kd [8] [nM] | PsV neutralization IC50 [9] [µg/mL] | PsV neutralization IC90 [9] [µg/mL] | PsV neutralization IC50 [10] [µg/mL] | PsV neutralization IC90 [10] [µg/mL] | Kd [11] [nM] | PsV IC50, Test 2 [3] [nM]
A-9 (antibody, V domains shown) VH: EVQLVESGGGLVKPGRSLRLSCAASGFTFADYAMSWFRQAPGKGLEWVGFIRSKPYGGTTEYAASVKGRFTISRDDSKSIAYLQMNSLKTEDTAVYYCSRDPWYCSGGDCYAVTGSWFDPWGQGTLVTVSS VL: DIVLTQSPSSLSASVGDRVTITCQASQDIKKYLNWYQQKPGKAPKLLIYDVSNLETGVPSRFSGSGSGTDFTFTISSLQPEDVAIYYCQQYDNLPQTFGQGTKVDIK | 0.147 | 0.019 | 0.118 | 0.028 | 0.184 | 20.8 | 10 | 17.8 | 15 | 12.9 | 6.28 |  |  |  |  |  | 
A-22 (antibody, V domains shown) VH: not shown VL: EIVLTQSPGTLSLSPGERATLSCRASQTVRSDLAWYQQKPGQAPRLLIYGASTRATDISDRFSGSGSGTEFTLTISSLQSEDFAVYYCQQYYEWPPHSDSFGGGTKVEIK |  | 1.53 | 9.54 | 2.13 | 12.8 |  | 0.35 | 0.25 | 0.258 |  | 0.218 | 1.49 | 25.3 | 0.335 | 0.736 | 0.756 | 
A-16 (antibody, V domains shown) VH: QVQLVESGGGLVQPGRSLRLSCAASGFTFDDYAMHWVRQAPGKGLEWVSGISWNSGTIGYADSVKGRFIISRDNAKNSLYLQMNSLRGEDMALYYCGKDRKREDPSLGGMDVWGQGTTVTVSS VL: SYELTQPPSVSVAPGQTARITCGGNNIGSKSVHWYQQKPGQAPVLVVYDDTDRPSGIPERFSGSNSGNTATLTISRVEAGDEADYYCQVWDSSSDHYVFGTGTKLTVL | 0.081 | 0.025 | 0.329 | 0.103 | 0.905 | 0.19 | 4.62 | 6.05 | 4.83 |  |  |  |  |  |  |  | 
A-18 (antibody, V domains shown) VH: EVQLLESGGGLVQPGGSLRLSCAASGFTFSRYWMHWVRQAPGKGLVWVSRINSDGSSTTYADSVKGRFTISRDNAKNTLYLQMNSLRAEDTAVYYCARELYYYDSRGAEEGEGWFDPWGQGTLVTVSS VL: QSVLTQPPSVSGAPGQRVTISCTGISSNIGAGYDVHWYQQLPGTAPKLLIYGNSNRPSGVPDRFSASKSGTSAPLAITGLQAEDEADYYCQSSDRSLSGSVFGTGTKLTVL | 0.0757 | 0.316 | 2.04 | 0.259 | 1.65 | 1.96 | 1.03 | 0.444 | 0.553 | 0.649 | 0.714 |  |  |  |  | 1.22 | 8.84
A-6 (antibody, V domains shown) VH: QVQLVQSGGGVVQPGRSLRLSCAASGFTFSNFAMHWVRQAPGKGLEWVAVILYDGINKYYADSVKGRFTISRGNSKNTLSLQMNSLRAEDTAVYYCARAQNYYDRSGTLQLDAFDIWGQGTMVTVSS VL: DIVMTQSPSSLSASVGDRVTITCRASQGIRNDLGWYQQKPGKAPKLLIYAASSLQSGVPSRFSGSGSGTDFTLTISSLQPEDFATYYCLQDYNYPLTFGGGTKVEIK | 0.146 | 0.192 | 1.21 | 0.171 | 1.47 |  | 1.46 |  | 2.05 |  |  |  |  |  |  | 1.45 | 
